Test results reported in doi:10.1101/728907 (bioRxiv, 2019).

Target: T1, GFLV-derived virus-like particles (VLP) in which enhanced GFP is encaged (Grapevine fanleaf virus, isolate not …)
T1 chain: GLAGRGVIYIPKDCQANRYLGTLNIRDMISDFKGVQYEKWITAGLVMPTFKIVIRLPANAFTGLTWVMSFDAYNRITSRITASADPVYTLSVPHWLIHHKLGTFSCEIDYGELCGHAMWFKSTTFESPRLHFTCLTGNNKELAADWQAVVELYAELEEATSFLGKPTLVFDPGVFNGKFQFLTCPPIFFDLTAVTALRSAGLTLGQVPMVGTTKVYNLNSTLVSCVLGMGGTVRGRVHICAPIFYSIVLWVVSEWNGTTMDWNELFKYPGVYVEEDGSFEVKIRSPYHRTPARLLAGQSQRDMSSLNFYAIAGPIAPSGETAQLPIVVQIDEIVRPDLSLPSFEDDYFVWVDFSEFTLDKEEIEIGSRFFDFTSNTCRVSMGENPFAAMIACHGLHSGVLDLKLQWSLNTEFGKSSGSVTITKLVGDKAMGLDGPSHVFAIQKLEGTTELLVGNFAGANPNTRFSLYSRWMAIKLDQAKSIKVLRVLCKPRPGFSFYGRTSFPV
Experiment: MST

B1: Nanobody Nb23 specific to GFLV (VHH)
VHH: QVQLQESGGGSVQVGGSLRVACAASGDTFSGYLAAWFRQAPGKGREGVAAINSKRHTTSYADSVKGRFTISKDNADNIMYLEMNSLKPEDTAIYYCAAADAIGLAEYWSTPTLSAARYKYWGQGTQVTVSS
  Kd: 9.13 nM
